From US6410715 (QUESTCOR PHARMACEUTICALS, dated 2002)

What was measured:
[1] = target: eIF-4E of human HTK-143 cells (human) (UniProt P06730); experiment: cell-based or functional assay
[2] = target: 4E-BP1 prepared from untreated rat adipose tissue (rat) (UniProt Q62622); experiment: far-Western on blotted heat-stable adipose tissue proteins, pool 1, no insulin
[3] = target: 4E-BP1 prepared from untreated rat adipose tissue (rat) (UniProt Q62622); experiment: far-Western on blotted heat-stable adipose tissue proteins, pool 2, no insulin
[4] = target: 4E-BP1 prepared from untreated rat adipose tissue (rat) (UniProt Q62622); experiment: far-Western on blotted heat-stable adipose tissue proteins, pool 3, no insulin
[5] = target: 4E-BP1 prepared from insulin-treated rat adipose tissue (rat) (UniProt Q62622); experiment: far-Western, pool 1, insulin-treated against untreated tissue of the same pool
Sequence of 4E-BP1 prepared from insulin-treated rat adipose tissue (rat) (Q62622 2-117 limits assumed): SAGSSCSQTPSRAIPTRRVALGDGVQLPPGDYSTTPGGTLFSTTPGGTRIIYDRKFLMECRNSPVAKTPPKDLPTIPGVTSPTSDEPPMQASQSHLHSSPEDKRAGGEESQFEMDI

[6] = target: 4E-BP1 prepared from insulin-treated rat adipose tissue (rat) (UniProt Q62622); experiment: far-Western, pool 2, insulin-treated against untreated tissue of the same pool
[7] = target: 4E-BP1 prepared from insulin-treated rat adipose tissue (rat) (UniProt Q62622); experiment: far-Western, pool 3, insulin-treated against untreated tissue of the same pool
[8] = target: 4E-BP1 prepared from insulin-treated rat adipose tissue (rat) (UniProt Q62622); experiment: far-Western on blotted heat-stable adipose tissue proteins, pool 1, insulin 80 nM
[9] = target: 4E-BP1 prepared from insulin-treated rat adipose tissue (rat) (UniProt Q62622); experiment: far-Western on blotted heat-stable adipose tissue proteins, pool 2, insulin 80 nM
[10] = target: 4E-BP1 prepared from insulin-treated rat adipose tissue (rat) (UniProt Q62622); experiment: far-Western on blotted heat-stable adipose tissue proteins, pool 3, insulin 80 nM
[11] = target: eIF-4E of rabbit reticulocyte lysate (rabbit, UniProt P29338 2-217); experiment: cell-based or functional assay
Sequence of eIF-4E of rabbit reticulocyte lysate (P29338 2-217 limits assumed): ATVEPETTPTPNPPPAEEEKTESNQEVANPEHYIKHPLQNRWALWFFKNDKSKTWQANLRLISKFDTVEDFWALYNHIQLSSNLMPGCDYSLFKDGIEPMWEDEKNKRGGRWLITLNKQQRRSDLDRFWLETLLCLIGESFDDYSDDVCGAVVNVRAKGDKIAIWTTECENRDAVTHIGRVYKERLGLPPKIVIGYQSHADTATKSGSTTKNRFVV

Sequence of eIF-4E of human HTK-143 cells (human) (P06730 2-217 limits assumed): as the sequence (P29338 2-217 limits assumed) above, with P15T, A16T, D173E counted along it
Sequence of 4E-BP1 prepared from untreated rat adipose tissue (rat) (Q62622 2-117 limits assumed): as the sequence (Q62622 2-117 limits assumed) above

With “4E-BP1 (human, protein of 118 amino acids)” the CAT (%), cap-dependent expression from pGEMCAT/EMC/LUC in HTK-143 cells co-transfected with pRc/CMV/4E-BP1 (% of reporter plasmid alone) [1] was 28, the CAT (%), cap-dependent expression from pGEMCAT/polio/LUC in HTK-143 cells co-transfected with pRc/CMV/4E-BP1 (% of reporter plasmid alone) [1] was 22 and the inhibition of CAT expression in transfected HTK-143 cells [1] was 4 to 5 fold.

Molecule “4E-BP2 (human, protein of 120 amino acids)” has a CAT (%), cap-dependent expression from pGEMCAT/EMC/LUC in HTK-143 cells co-transfected with pRc/CMV/4E-BP2 (% of reporter plasmid alone) [1] of 26, a CAT (%), cap-dependent expression from pGEMCAT/polio/LUC in HTK-143 cells co-transfected with pRc/CMV/4E-BP2 (% of reporter plasmid alone) [1] of 24 and an inhibition of CAT expression in transfected HTK-143 cells [1] of 4 to 5 fold.

Work on 32P-labelled HMK-eIF-4E probe yielded a Relative amount of HMK-eIF-4E bound (relative amount (Phosphorimager)) [2] of 152, a Relative amount of HMK-eIF-4E bound (relative amount (Phosphorimager)) [3] of 210 and a Relative amount of HMK-eIF-4E bound (relative amount (Phosphorimager)) [4] of 214. For the same molecule, the Fold reduction [5] was 3.7 fold, the Fold reduction [6] was 3 fold and the Fold reduction [7] was 3.6 fold. For the same molecule, the Relative amount of HMK-eIF-4E bound (relative amount (Phosphorimager)) [8] was 41, the Relative amount of HMK-eIF-4E bound (relative amount (Phosphorimager)) [9] was 70 and the Relative amount of HMK-eIF-4E bound (relative amount (Phosphorimager)) [10] was 60.

B1: GST-4E-BP2 fusion protein (other, not shown: a dimerising Fc or GST; large carriers; small tags and cut ends)
chain: MSSSAGSGHQPSQSRAIPTRTVAISDAAQLPHDYCTTPGGTLFSTTPGGTRIIYDRKFLLDRRNSPMAQTPPCHLPNIPGVTSPGTLIEDSKVEVNNLNNLNNHDRKHAVGDDAQFEMDI
In the case of B1, the “inhibition of translation of CAT (cap-dependent)” value [11] is reported as about 5 fold.
